Experimental data reported in publication PMC12343972 (Nature Communications, 2025).

How the values were obtained:
Rad50 WT = molecular target: T1, Rad50 WT (Saccharomyces cerevisiae, UniProt P12753 1-1312); assay: EMSA
T1 sequence: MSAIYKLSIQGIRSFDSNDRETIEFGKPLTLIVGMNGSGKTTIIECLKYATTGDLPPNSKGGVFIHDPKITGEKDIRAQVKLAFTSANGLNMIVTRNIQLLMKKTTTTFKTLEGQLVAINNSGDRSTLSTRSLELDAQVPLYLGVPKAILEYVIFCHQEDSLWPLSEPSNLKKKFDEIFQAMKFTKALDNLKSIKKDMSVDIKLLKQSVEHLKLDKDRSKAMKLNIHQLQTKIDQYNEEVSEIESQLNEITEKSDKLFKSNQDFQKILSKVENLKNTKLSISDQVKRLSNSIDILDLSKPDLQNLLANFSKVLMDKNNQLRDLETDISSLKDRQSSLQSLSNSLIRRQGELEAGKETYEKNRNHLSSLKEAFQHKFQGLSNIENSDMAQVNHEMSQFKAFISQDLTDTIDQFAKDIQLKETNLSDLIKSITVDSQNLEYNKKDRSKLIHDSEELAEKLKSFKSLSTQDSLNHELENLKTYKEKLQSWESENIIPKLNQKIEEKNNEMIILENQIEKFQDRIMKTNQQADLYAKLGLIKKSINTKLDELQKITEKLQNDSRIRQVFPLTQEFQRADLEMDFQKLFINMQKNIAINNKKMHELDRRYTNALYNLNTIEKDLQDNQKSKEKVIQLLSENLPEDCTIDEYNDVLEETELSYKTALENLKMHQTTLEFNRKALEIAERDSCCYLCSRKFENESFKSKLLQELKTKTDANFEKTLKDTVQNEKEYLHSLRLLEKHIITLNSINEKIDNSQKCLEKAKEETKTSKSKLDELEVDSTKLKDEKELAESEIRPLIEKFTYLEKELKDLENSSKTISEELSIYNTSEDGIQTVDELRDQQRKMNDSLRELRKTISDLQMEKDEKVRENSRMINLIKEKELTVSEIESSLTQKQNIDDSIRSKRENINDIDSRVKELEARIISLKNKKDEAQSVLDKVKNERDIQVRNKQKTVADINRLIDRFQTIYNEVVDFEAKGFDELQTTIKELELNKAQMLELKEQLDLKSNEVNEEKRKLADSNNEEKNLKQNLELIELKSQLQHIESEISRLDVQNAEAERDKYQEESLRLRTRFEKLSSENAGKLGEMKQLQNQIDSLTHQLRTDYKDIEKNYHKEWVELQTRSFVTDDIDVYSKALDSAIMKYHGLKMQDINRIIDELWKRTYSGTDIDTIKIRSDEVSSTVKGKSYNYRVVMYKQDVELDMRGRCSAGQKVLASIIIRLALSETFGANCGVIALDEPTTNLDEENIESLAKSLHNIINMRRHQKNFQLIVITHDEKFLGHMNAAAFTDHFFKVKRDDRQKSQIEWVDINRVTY

Rad50-R131A = molecular target: T2, Rad50-R131A (Saccharomyces cerevisiae, UniProt P12753 1-1312, R131A); assay: EMSA
T2 sequence: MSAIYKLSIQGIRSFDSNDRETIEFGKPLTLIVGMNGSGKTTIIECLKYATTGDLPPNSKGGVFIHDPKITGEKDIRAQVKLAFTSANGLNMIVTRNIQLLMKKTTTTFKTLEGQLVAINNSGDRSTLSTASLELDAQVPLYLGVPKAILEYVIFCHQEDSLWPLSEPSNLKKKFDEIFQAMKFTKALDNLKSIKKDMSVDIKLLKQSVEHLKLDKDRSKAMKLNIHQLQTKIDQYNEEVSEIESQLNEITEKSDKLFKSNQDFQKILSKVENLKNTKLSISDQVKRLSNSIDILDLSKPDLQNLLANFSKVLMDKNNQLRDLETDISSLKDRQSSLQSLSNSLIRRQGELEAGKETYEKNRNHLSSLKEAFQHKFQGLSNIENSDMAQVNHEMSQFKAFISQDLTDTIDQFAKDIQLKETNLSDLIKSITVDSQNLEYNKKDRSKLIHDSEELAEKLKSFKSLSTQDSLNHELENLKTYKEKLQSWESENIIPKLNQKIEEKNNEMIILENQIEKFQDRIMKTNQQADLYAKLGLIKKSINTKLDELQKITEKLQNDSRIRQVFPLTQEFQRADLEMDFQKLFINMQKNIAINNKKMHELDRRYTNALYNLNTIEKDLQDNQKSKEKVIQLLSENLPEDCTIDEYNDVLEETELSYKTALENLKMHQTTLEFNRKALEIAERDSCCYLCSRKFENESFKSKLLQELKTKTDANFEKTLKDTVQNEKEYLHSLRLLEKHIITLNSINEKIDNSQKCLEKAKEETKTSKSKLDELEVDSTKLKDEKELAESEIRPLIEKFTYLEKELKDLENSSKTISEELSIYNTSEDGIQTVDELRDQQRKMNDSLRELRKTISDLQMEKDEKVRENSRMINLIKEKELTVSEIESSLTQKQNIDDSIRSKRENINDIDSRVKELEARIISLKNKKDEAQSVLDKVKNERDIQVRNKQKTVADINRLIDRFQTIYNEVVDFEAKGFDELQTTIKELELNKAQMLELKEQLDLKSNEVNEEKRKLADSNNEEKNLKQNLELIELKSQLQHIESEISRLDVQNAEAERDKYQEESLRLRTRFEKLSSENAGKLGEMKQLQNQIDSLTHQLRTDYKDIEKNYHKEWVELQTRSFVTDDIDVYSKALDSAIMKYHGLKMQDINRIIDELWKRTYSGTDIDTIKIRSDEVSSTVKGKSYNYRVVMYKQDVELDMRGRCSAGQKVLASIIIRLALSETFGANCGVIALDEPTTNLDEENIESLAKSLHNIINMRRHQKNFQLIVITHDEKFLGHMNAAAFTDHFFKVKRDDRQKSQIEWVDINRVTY

B1: 83-mer dsDNA (EMSA) (dsDNA)
DNA 1: TTGATAAGAGGTCATTTTTGCGGATGGCTTAGAGCTTAATTGCTGAATCTGGTGCTGTAGCTCAACATGTTTTAAATATGCAA
DNA 2: TTGCATATTTAAAACATGTTGAGCTACAGCACCAGATTCAGCAATTAAGCTCTAAGCCATCCGCAAAAATGACCTCTTATCAA
binding result (Rad50 WT): binds
binding result (Rad50-R131A): binds
